From patent EP1396498A1, “A pair of polypeptides with specific and strong interaction” (Max-Planck-Gesellschaft zur Förderung der Wissenschaften …, priority 2002, dated 2004)

T1: GST-Dsl1p (Saccharomyces cerevisiae, UniProt P53847)
T1 construct: when introduced into full length GST-Dsl1p; made in house; host or cells: E. coli (BL21DE3 or C41DE3)
T1 sequence (P53847 1-754): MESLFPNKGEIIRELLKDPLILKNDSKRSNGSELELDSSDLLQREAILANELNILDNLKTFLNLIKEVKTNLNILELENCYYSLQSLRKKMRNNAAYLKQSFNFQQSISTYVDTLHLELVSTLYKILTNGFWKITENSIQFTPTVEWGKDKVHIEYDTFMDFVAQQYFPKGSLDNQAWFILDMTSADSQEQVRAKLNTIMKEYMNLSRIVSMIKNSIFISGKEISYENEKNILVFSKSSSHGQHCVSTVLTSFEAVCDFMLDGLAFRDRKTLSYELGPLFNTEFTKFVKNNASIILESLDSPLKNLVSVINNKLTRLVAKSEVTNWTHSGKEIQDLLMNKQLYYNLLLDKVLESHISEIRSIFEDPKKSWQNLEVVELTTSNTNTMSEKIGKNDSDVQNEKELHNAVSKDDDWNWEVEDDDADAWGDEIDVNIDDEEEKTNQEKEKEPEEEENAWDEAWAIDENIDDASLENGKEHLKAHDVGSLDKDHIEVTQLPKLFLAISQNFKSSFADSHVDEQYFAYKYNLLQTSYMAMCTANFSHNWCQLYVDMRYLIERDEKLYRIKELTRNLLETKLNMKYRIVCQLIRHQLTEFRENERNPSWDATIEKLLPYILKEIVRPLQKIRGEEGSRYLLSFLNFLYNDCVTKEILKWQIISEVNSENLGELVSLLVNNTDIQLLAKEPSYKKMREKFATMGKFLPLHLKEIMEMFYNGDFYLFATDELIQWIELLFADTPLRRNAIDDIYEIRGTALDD

T2: GST-Dsl1p (S. cerevisiae (yeast), UniProt P53847 1-754)
T2 construct: Made in E. coli and immobilised on glutathione-Sepharose 4B; also called GST-tagged Dsl1p; full length GST-Dsl1p; not shown: glutathione S-transferase (GST) encoded by pGEX-TT (pGEX-2T with modified polylinker); placement and linker residues not
T2 sequence (looked up): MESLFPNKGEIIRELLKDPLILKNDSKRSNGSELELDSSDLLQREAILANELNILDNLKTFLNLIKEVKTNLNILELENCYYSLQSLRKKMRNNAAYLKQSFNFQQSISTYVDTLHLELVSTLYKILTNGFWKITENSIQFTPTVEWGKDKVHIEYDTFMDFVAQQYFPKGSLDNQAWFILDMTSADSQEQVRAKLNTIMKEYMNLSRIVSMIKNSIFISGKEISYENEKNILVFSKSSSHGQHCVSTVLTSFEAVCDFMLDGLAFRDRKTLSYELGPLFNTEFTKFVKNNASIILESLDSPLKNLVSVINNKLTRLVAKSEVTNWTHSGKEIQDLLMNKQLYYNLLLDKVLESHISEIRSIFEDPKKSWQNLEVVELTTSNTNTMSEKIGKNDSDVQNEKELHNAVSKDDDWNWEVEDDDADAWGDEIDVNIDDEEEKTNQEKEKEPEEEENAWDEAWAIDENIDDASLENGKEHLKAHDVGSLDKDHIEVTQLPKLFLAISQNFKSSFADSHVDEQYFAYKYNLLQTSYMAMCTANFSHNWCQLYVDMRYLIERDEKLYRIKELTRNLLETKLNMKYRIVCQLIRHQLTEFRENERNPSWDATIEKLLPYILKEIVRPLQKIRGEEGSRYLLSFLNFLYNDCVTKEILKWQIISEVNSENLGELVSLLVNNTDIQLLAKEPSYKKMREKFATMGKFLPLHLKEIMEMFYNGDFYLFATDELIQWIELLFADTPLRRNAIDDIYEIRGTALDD


What was measured:
[1] = molecular target: T1, GST-Dsl1p; assay: peptide spot overlay assay: 13-mer δ-COP peptides on cellulose membrane; type: binding; settings: 13-mer peptides spanning amino acids 191-302 of δ-COP; detection with anti-Dsl1p antibodies
Description: To further delineate the Dsl1p binding domain in δ-COP 13-mer peptides spanning amino acids 191-302 of δ-COP were synthesized on a cellulose membrane (overlap in sequence by 10 amino acids; Jerini; Berlin, Germany) and probed with to GST-Dsl1p. Anti-Dsllp antibodies were used to detect bound GST-Dsl1p. […] We cannot exclude that peptides from position 248 to 270 also bind to Dsl1p since anti-Dsl1 antibody alone gave already a weak signal with peptides derived from this region. […] To this resin we applied crude extract of E. coli cells producing a chimeric protein consisting of GST and the δ-COP binding domain (GST-L4, "WxW"; L4 = D-type-polypeptide; SED ID NO 1 ([…]-NIDDEEEKT)). After washing thoroughly, bound proteins were eluted and analyzed by SDS-PAGE followed by Coomassie staining. […]
To analyze the Ds11p binding region within the Ret2 protein overlapping 13-mer peptides (overlap 10 residues each) spanning the region between residue 191 and 302 were directly synthesized on a cellulose membrane (Jerini; Berlin, Germany). […] After 2 h incubation with purified GST-Ds11p in blocking buffer, the membrane was washed three times with Tris/HCl-buffer and bound GST-Ds11p was detected by using α-Dsl1p antibodies and the ECL detection system (AmershamPharmaciaBiotech).

[2] = molecular target: T2, GST-Dsl1p; assay: peptide spot overlay on cellulose membrane, detected with anti-Dsl1p antibodies

Row | signal of bound GST-Dsl1p [1] | binding result [2] | Molecule
1 | strongest signal | – | R-type-peptide: peptide representing residues 242 to 254 of δ-COP, RAGHSATGGMKLG
2 | – | binds | RAGHSATGGMKLG (A spot on a peptide array of 13-mers that overlap by 10 residues and span aa 191-302; also called R-type-peptide) [13-mer peptide representing residues 242 to 254 of δ-COP, synthesized on a cellulose membrane]
